Test results: patent US20100204100A1, “BIOLOGICAL AGENTS ACTIVE IN CENTRAL NERVOUS SYSTEM” (THE JOHNS HOPKINS UNIVERISTY, priority 2007, published 2010)
“Also recorded” adds a separate entry of the source.

Experiments:
[1] = test system: threshold for halothane anesthesia; test: Measurement of halothane MAC (tail clamp); type: in vivo, mouse; conditions: mice; for effect on halothane MAC: intraperitoneal injection, dose series; for halothane MAC: mean±S.E.M., vehicle 1.12±0.05
Description: The purified fusion peptides at the indicated amounts were injected intraperitoneally into mice in 300 μl of phosphate-buffered saline and 10% glycerol. The mice were given Tat-PSD-95 PDZ2 or control peptide (mutated Tat-PSD-95 PDZ2 or PSD-95 PDZ2 without Tat) 4 h before MAC measurement and righting reflex testing. All the animals were assigned randomly to experimental groups consisting of 6-8 animals each. Western blot analysis was then used to verify the CNS delivery of these fusion peptides after intraperitoneal injection. Measurement of halothane MAC value was carried out as previously described with minor modification^20-22. Mice were placed in individual Plexiglas chambers 3 h after the injection of the fusion peptides. Each chamber was fitted with a rubber stopper at one end through which the mouse's tail and a rectal temperature probe protruded. Groups of four mice were given halothane in oxygen (4 l/min total gas flow). A gas sample was continuously drawn, and the anesthetic concentration was measured with an agent analyzer (Ohmeda 5250 RGM, Louisville, Colo.). A rectal temperature probe was inserted under light general anesthesia, and temperature was kept at 36˜38° C. with heat lamps throughout the experiment. Mice initially breathed approximately 1.5% halothane for 60 min. […] In each case, the tail was stimulated proximal to the previous test site. Only the middle third of the tail was used for tail-clamping. […] The anesthetic concentration was increased (or decreased) in steps of 0.1% until the positive response disappeared (or vice versa), with 10 min for equilibration allowed after each change of anesthetic concentration. MAC is defined as the concentration midway between the highest concentration that permitted movement in response to the stimulus and the lowest concentration that prevented movement.

[2] = test system: CFA-induced inflammatory pain behaviors; test: CFA-induced inflammatory pain behaviors, paw withdrawal threshold (von Frey filaments); type: in vivo, mouse; conditions: vs vehicle
Description: Intrathecal Injection of Tat Fusion Peptides. Intrathecal injection was performed in unanesthetized mice as previously described (Hylden and Wilcox, 1980; Tao, et al., 2003b; Tao, et al., 2004). In brief, the mouse was held firmly by the pelvic girdle in one hand, while a 10-μl Luer tip syringe with a 30 gauge 0.5-inch needle was held in the other hand at an angle of about 20° above the vertebral column. The needle was inserted into the tissue to one side of the L5 or L6 spinous process so that it slipped into the groove between the spinous and transverse processes. The needle was then moved carefully forward to the intervertebral space as the angle of the syringe was decreased to about 10°. […] The injection volume was 5 μl. The mice, assigned randomly to the experimental groups of 6-8, were given intrathecally Tat-PSD-95 PDZ2 or control peptide (mutated Tat-PSD-95 PDZ2 or PSD-95 PDZ2 without Tat PTD) 30 min before behavioral testing. Behavioral Analysis. Mechanical sensitivity of the mice was measured with von Frey filaments (Stoelting, Wood Dale, Ill.) as described previously (Yang and Gereau, 2003). Mice were placed in Plexiglas testing boxes with a 1×1 cm^2 wire-mesh grid floor and habituated for 3 h before experiments. Each von Frey filament was applied to the mouse hind paw in ascending order until it bent at approximately 30° for about 3 s. The smallest filament that evoked a paw withdrawal response was taken as the mechanical threshold (paw withdrawal threshold). Similar sites were selected for measuring mechanical thresholds in all tested animals, and the thresholds were measured at approximately the same site throughout the experiment for each individual animal. Two to three measurements were made before CFA or fusion peptides injection, and the average was calculated as the baseline. Established inflammatory pain behaviors were induced by intraplantar injection of CFA solution (20 μl, 1 mg/ml). To observe the effect of Tat-PSD-95 PDZ2 on the development of CFA-induced established inflammatory pain, the mice were given intraperitoneally Tat-PSD-95 PDZ2 or control peptide (mutated Tat-PSD-95 PDZ2 or PSD-95 PDZ2 without Tat) 2 h before CFA injection or intrathecally these peptides 1.5 h after CFA injection (development protocol); on the other hand, to observe the effect of Tat-PSD-95 PDZ2 on the maintenance of CFA-induced established inflammatory pain, the mice were given intraperitoneally these peptides 20 h after CFA injection or intrathecally these peptides 23.5 h after CFA injection (maintenance protocol). Behavioral measurements were conducted 2 h after CFA injection for the “development protocol” and 24 h after CFA injection for the “maintenance protocol”. The effect of Tat fusion peptide on CFA-induced established inflammatory pain behaviors was expressed as % of baseline.

[3] = intraperitoneal, Tat-PSD-95 PDZ2 2, 4, 8 mg/kg, control peptides 8 mg/kg, development and maintenance phases
[4] = intrathecal, Tat-PSD-95 PDZ2 2.5, 5, 10 μg/5 μl, control peptides 10 μg/5 μl

B1: PSD-95 PDZ2: Control peptide containing the same sequences as Tat-PSD-95 PDZ2 but without Tat PTD (protein)
chain: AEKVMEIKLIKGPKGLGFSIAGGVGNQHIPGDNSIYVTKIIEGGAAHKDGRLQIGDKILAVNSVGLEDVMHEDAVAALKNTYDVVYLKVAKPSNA
- effect on halothane MAC compared to the vehicle-treated group ([1]; 8 mg/kg intraperitoneal): no effect
- effect on halothane MAC [1]: no effect
- effect on CFA-induced decrease of paw withdrawal threshold, ipsilateral side [2, 3]: no effect
- effect on CFA-induced decrease of paw withdrawal threshold, ipsilateral side [2, 4]: no effect

B2: Tat-PSD-95 PDZ2: His-tagged fusion peptide: HIV Tat minimal transduction domain (residues 47-57) fused to the second PDZ domain of PSD-95 (protein)
chain: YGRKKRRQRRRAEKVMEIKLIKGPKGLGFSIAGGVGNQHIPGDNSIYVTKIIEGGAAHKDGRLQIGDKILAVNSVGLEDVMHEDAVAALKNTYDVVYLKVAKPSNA
- halothane MAC ([1]; 2 mg/kg intraperitoneal): 1.11±0.05
- halothane MAC ([1]; 4 mg/kg intraperitoneal): 0.99±0.05
- effect on halothane MAC compared to the vehicle-treated group ([1]; 8 mg/kg intraperitoneal): significantly reduced
- halothane MAC ([1]; 8 mg/kg intraperitoneal): 0.77±0.05
- effect on halothane MAC [1]: dose-dependently reduced
- effect on CFA-induced decrease of paw withdrawal threshold, ipsilateral side [2, 3]: significantly inhibited; also recorded: dose-dependently inhibited
- effect on CFA-induced decrease of paw withdrawal threshold, ipsilateral side [2, 4]: significantly inhibited; also recorded: dose-dependently inhibited

B3: mutated Tat-PSD-95 PDZ2: Control fusion peptide: Tat-PSD-95 PDZ2 with three sites critical for NMDAR/PSD-95 interaction mutated (K165T, L170R and H182L) (protein)
chain: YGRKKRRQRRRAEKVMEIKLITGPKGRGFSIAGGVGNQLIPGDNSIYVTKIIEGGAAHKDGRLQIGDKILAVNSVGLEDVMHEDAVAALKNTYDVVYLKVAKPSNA
- effect on halothane MAC compared to the vehicle-treated group ([1]; 8 mg/kg intraperitoneal): no effect
- effect on halothane MAC [1]: no effect
- effect on CFA-induced decrease of paw withdrawal threshold, ipsilateral side [2, 3]: no effect
- effect on CFA-induced decrease of paw withdrawal threshold, ipsilateral side [2, 4]: no effect
